Measurements: the nanobody polyreactivity screen of Harvey et al. (2022)

Assay: yeast display, Sf9 membrane polyspecificity reagent, FACS + sequencing; frameworks hold sequencing errors
Outline: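 Nanobodies from a synthetic yeast display library (Saccharomyces cerevisiae BJ5465), induced 36–48 hours with galactose, were stained 1 hour at 4 °C with 10% biotinylated, detergent-solubilized Sf9 membrane reagent, enriched on streptavidin microbeads, then FACS-sorted. Anti-HA (expression) and streptavidin (reagent binding) fluorescence set low and high (top ~1%) gates. Polyreactivity labels come from the gate of origin. Genes were colony-PCR amplified, MiSeq 2 × 250 sequenced and filtered by CDR length.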

Sequence | polyreactivity (PSR sort gate)
QVQLVESGGGFVQAGGSHRLSCAASGRIFSCNAMGWYRQAPGKERELVAAITWRGTSTYYADSVKGRFTISRDNAKNTVYLQMNSLKPEDTAVYYWNGDYYYPADGRHYHYDYWGQGTQVTVSS | low polyreactivity
QVQLVESGGGFVQAGGSLRFSCAAYGSTFNQYAMGWYRQAPGKEREFVASITFSGGRTYYADSVQGRFTLSRDNEQNTVYLQMNSLKTEDPAVSYCNAVGYTPRKPSKFDYRGQGTQVTVSS | low polyreactivity
QVQLVESGGGFVQAGGSLRLICAASGRIFGYYAMAWYRQAPGQERELVAAINWGGGITYYADSVKGRFTISRDNAKNTVYLQMNSLKPEDTAVYYCATDYKLVYSIYDYWGQGTQVTVSS | low polyreactivity
QVQLVESGGGFVQAGGSLRLSCAASGFTFRKYARGWYRQAPGNERELVAVINIVGSTYYADSVKGRFTISRDNAKNTVYLQMNSLKPEDTAVYYCAADWSYRLKYYWYGGFNYWGQGTQVTVSS | high polyreactivity
QVQLVESGGGFVQAGGSLRLSCAASGFTFWRYTMGWYRQAPGKERELVAAINWSGGRTYYADSVKARFTISRDNAKNTVYLQMNSLTPEDTAVYYCATGYSTSVGGSQGDSWGQGTQVTVSS | high polyreactivity
QVQLVESGGGFVQAGGSLRLSCAASGIIFDYNAMGWYRQAHGKERELVAAISGRSGRTYYADSVKGRFTISRDNAKNTVYLQMNSLKPEDTAVYYCAARWYAGGNYWGQGTQVTVSS | high polyreactivity
QVQLVESGGGFVQAGGSLRLSCAASGLIFSWYDMGWYRQAPGKERELVAAITTDGDDTYYADSVKGRFTISRDNAKNTVYLQMNSLKPEDTAVYYCAADSELAIRYPDRDYDSWGQGTQVTVSS | low polyreactivity
QVQLVESGGGFVQAGGSLRLSCAASGLTFYGNVMGWYRQAPGKERELVAAITRRGTSTYYADSVKGRFTLSRDYAKNTVYLQMNRLKPEDTAFYYCAAGTAYSRFGYWGQGTQVTVSS | high polyreactivity
QVQLVESGGGFVQAGGSLRLSCAASGRIFLTNAMGWYRQAPGKERELVAAITSGGSTYYADSVKGRFTISRDNAKNTVYLQMNSLKPEDPAVYYCNADTDRYSPYEYDFWGQGTQVTVSS | low polyreactivity
QVQLVESGGGFVQAGGSLRLSCAASGRIFPGYAKGWYRQAPGKERELVAAISASGGSTYYADSVKGRFTISRDNAKNTVYLQMNSLKPEDTAVYYCNAVYRRYEYWGQGTQVTVSS | high polyreactivity
QVQLVESGGGFVQAGGSLRLSCAASGRIFPWNTMGWYRQATGNERELVAGITSGGSTNYADSVKGRFTISRDNAKNTVYLQMNSLKPEDTAVYNCAARGYYWYISGVYEYEYWGQGTQVTVSS | low polyreactivity
QVQLVESGGGFVQAGGSLRLSCAASGRIFYNYAMGWYRQAPGKERELVAAMSGSGGSTYYADSVKGRFTISRDNAKNTVYLQMNSLKPEDTAVYYCSTSGPQYYSRNVDYWGQGTQVTVSS | low polyreactivity
QVQLVESGGGFVQAGGSLRLSCAASGSIFWLYDMGWYRQAAGKVRELVAAISWSTGGTYYADSVKGRFTISRENAKNTVYLQMNSLKPEDTAVYYCNAETYDQYNYWGQGTQVTVSS | low polyreactivity
QVQLVESGGGFVQAGGSLRLSCAASGSILSGYAMGWYRPAPGKERELVAAITSGGDTNYADSVKGRFTISRDNAKNTVYLQMNSLKPEDTAVYYCNRRGDFRIAYYDPMDYWGQGTQVTVSS | low polyreactivity
QVQLVESGGGFVQAGGSLRLSCAASGSTFGYYVMGWYRQAPGKERELVAAISASGGSTYYADSVKGRFTISRDNAKHTVYLQMNSLKPEDTAVYYCAAGGYYVRYDYWGQGTQVTVSS | high polyreactivity
QVQLVESGGGFVQAGGSLRLSCAASGSTFRFYAMGWYRQAPGKERELVAAINGSGGSTYYADSVKGRFTISRDNAKNTVYLQMNSLKPEDTAVYYCAAESNTGPGEDYWGQGTQVTVSS | low polyreactivity
QVQLVESGGGFVQAGGSLRLSCAASGYTLRIYAMGWYRQAPGKERELVAAISRSGGRTFYADSVKGRFTISRDNAKNTVYLQMNSLKPEDSAVYYCAAVPRSYDTGRMDYWGQGTQVTVSS | high polyreactivity
QVQLVESGGGFVQAGGSLRLSCASSGRIFRGYTMGWYRQAPGKEREFVAAIRRSGGTTYYADSVKRRFTISRDNAKNTVYLQMNSLKPEDTAVYYCAAGYPGFTYQRRKYDYWGQGTQVTVSS | high polyreactivity
QVQLVESGGGFVQAGGSLRVSCAASGSIFGSYAMGWYRQAPGKERELVADISSGGSTNYADSVKGRFTISRDNAKNTVYLQMNSLKPEDTAVYYCNADDPAGYLYWWGSWLESDYWGQGTQGTVSS | low polyreactivity
QVQLVESGGGFVQAGRSLRLSCAASGSTFYIYAMGWSRQAPGKEREMVADISRGDSTNYADSVKGRFTISRDNAKNPVYLQLNSLKPEDTAVYYCNAAFRGERDWFSGRRYKFDYWGQGTQVTVSS | low polyreactivity
QVQLVESGGGIVHAGGSLRLSCAASGSTIDVYDMGWYRQAPGKERELVAAITTSGGGTYYADSVKGRFTISRDNAKNTVYLQMNRLKPEDTAVYYCAADTWRDGDDYWGQGTQVTVSS | low polyreactivity
QVQLVESGGGIVQAGCSLRFSCAASGGTFGYYTLGWYRQAPGKERQLVAAISSGGGTDYADSVKGRFTISRDNAKNTVSLQMNSLKAEDTAVYYCNAQWLEWHYVFLPSYTMDYWGLGTQVTVSS | low polyreactivity

Sequence | polyreactivity (PSR sort gate)
QVQLVESGGGIVQAGCSLRLSCAASGRIFGYYSMGWYRQAPGKDTELVAAISNGGSTHYADSVKGRFTISRDNAKNTVYLHMNSLKPEDSAVYYCAARWHYGYYAYYYWGQGTQVTVSS | high polyreactivity
QVQLVESGGGIVQAGGCLRLSFAASGFSFAKNAMGSYRQAPGKERELVAAIRSGGSTKYADSVNGRFTISRDNAKNTVYLQMNSLKPEDTAVYYCNARSTWSRTRPAYDYWGQGTQVTVSS | high polyreactivity
QVQLVESGGGIVQAGGRLRLSCAASGRIFDDNSMGWYRKAPGKETELVATISSSGVSTSYADSVKGRFTISRDNAKNTVYFQMNSLNPEYTAVYFCNAGYRLRYKFDYWGQGTQVTVAS | low polyreactivity
QVQLVESGGGIVQAGGSHRLICAASGFTYIRYAMGWYRQAPGKERELVASISNRGGRTYYADSVKGRFTNSRDNAKNTVYLQMNSLKPEDTAVYYCAAGYSYYSWGQGTQVTVSS | high polyreactivity
QVQLVESGGGIVQAGGSLPLICAASGFTFDWYALGWYRQAPGKERELVAAITTSGGTTYYADSVKGRFTMSRDNAKITVYLQMNSLKPEDTAVFYCAADADTDVFYILQEYDYWGQGTQVTVSS | low polyreactivity
QVQLVESGGGIVQAGGSLPLSCAASGIIFSVNAMGWYRQAPGKERELVAAITYSGGSTYYADSVKGRYTISRDNAKNTVYLQMNSLKPEVTAVYYCAAETYSSGEWYDYWGQGTQVTVSS | high polyreactivity
QVQLVESGGGIVQAGGSLRLICAASGFIFVTYAMGWYRQAPGKETELVAAITNSGGTTYYADSVKGRFTISRDNAKNTVYLQMNSLKPEDTAVYYCAADVWTPYLISLKSGYDYWGQGTQVTVSS | low polyreactivity
QVQLVESGGGIVQAGGSLRLICAASGFTFGYYTMGWYRQAPGKEREFVAAISGSGTNTYYADSVKGRFTISRDYAKNTVYLQMNSLKPEYTAVYYCNARWSLVSSGFDGGYWGQGSQVTVSS | high polyreactivity
QVQLVESGGGIVQAGGSLRLICAASGSNFNRYAMGWYRQAPGKERQLVARITNRSGNTYYADSVKGRFTISRDIAKNTVYLQMTSLKPEDTAVYYCAATKSLGRYIMEYWGLGTQVTVSS | low polyreactivity
QVQLVESGGGIVQAGGSLRLICDASGLIFTLYAMGWYRQAPGKETELVAAIDDGGRTYYADSVKGRFTISRDNAKNTVYLQMNSMIPEDTAVYYGAAVWLAVYSVWTDHHYDYWGQGTQVTVSS | low polyreactivity
QVQLVESGGGIVQAGGSLRLISAASGFIFAIYAMGWYRQAPGNERELVAGISSSGSTTRYADSVKVRFTISRDYAKYTVYLQLISLIPEDTAVYDCAADGYPGDDYWGQGTQVTVSS | high polyreactivity
QVQLVESGGGIVQAGGSLRLSCAASGFIFNTNAMGWYRQAPGKERELVAGISRSGVRTYYADSVKGRFTISRDNAKNTVYLQMNSLKPEDTAVYYCAATSLPRYYYWGQGTQVTVSS | low polyreactivity
QVQLVESGGGIVQAGGSLRLSCAASGFIFRYYVMGSYRQAPGKERELVASISRSGTSTYYADSVKGRFTISRDNAKNTVYLQMNSLKPEDTAVYYCAKGVGRGFGSATGYYWGQGTQVTVSS | high polyreactivity
QVQLVESGGGIVQAGGSLRLSCAASGFTFFIYTMGWYRQAPGKERELVAAIRSRTGSTYYADSVKGRITISRDNAKNTVYLQMNSLKPDDTAVYYCAATRVRSASYSIEYDYWGQGTQVTVSS | high polyreactivity
QVQLVESGGGIVQAGGSLRLSCAASGFTFPVYAMGWYRQAPGKEREFVAAITYIGGSTYADSVKGRFTISRDNAKNTVYLQMNSLKPEDTAVYYCAADIITEYWADYLGYLEYDYWGQGTQVTVSS | low polyreactivity
QVQLVESGGGIVQAGGSLRLSCAASGFTFWRYARGWYRQAPGKERELVAGISSGGSTNYADSVKGRFTISRDNAKNTVYLQMNSLKPEDTAVYYCAARGNYFYGIYGYWGQGTQVTVSS | low polyreactivity
QVQLVESGGGIVQAGGSLRLSCAASGFTFWYYAMGWYRQAPGKERELVAVINTSGGSTYADSVKGRFTISRDNAKNTVYLQMNSLKPEDTAVYYCNKDFIYGYDAASYRPEYDYWGQGTQVTVSS | low polyreactivity
QVQLVESGGGIVQAGGSLRLSCAASGFTILRYVMGWYRQAPGKERELVAAISYSGGRTYYADSVKGRFTISRDNAKHTVYLHMNSLKPEDPAVYYCAAARPFGYPPVMKYDYWGQVTQVTVSS | high polyreactivity
QVQLVESGGGIVQAGGSLRLSCAASGFTLWLNAMGWYRQAPGKERELVAAITTSDDGTYYADSVKGRFTISRDNAKNTVYLQMNSLKPEDTAVYYCASDYYSVLYDYWGQGTQLTVSS | low polyreactivity
QVQLVESGGGIVQAGGSLRLSCAASGFTYARYAKGWYRQAPGKERELVAAITRRGGSTHYADSVKGRFTISRDNAKNTVYLQMTSLKPEDTAVDYCAAYSLHNYLSEYGDWGQGTQVTVSS | high polyreactivity
QVQLVESGGGIVQAGGSLRLSCAASGIIFSIYGMGWYRQAPGKERELVAAINSGSSTNYADSVKGRFTISRDNAKNTVYLQMNSLKREDTAVYYCNADYRYPQYYHRTWIRYDYWGQGTQVTVSS | high polyreactivity
